Test results taken from paper PMC9168836, “Clamping of DNA shuts the condensin neck gate” (Proceedings of the National Academy of Sciences of the …, 2021).

Tests used:
Smc2 = target: T1, Smc2 (budding yeast (S. cerevisiae), UniProt P38989 1-1170); assay: cryo-EM structure; condensin pentamer with 100 nM relaxed circular DNA (1,789 bp), 5 mM ADP, 1 mM BeSO4, 10 mM NaF in TNT buffer pH 7.5; VPP and non-VPP images; low-resolution maps of the head module and of Ycg1-DNA; settings: both partners purified
T1 construct: Smc2, SMC subunit of budding yeast (S. cerevisiae) condensin; only the head domain and proximal coiled coil (neck) are resolved in the maps; Subunit of the wild-type condensin tetramer and pentamer used for cryo-EM
T1 sequence: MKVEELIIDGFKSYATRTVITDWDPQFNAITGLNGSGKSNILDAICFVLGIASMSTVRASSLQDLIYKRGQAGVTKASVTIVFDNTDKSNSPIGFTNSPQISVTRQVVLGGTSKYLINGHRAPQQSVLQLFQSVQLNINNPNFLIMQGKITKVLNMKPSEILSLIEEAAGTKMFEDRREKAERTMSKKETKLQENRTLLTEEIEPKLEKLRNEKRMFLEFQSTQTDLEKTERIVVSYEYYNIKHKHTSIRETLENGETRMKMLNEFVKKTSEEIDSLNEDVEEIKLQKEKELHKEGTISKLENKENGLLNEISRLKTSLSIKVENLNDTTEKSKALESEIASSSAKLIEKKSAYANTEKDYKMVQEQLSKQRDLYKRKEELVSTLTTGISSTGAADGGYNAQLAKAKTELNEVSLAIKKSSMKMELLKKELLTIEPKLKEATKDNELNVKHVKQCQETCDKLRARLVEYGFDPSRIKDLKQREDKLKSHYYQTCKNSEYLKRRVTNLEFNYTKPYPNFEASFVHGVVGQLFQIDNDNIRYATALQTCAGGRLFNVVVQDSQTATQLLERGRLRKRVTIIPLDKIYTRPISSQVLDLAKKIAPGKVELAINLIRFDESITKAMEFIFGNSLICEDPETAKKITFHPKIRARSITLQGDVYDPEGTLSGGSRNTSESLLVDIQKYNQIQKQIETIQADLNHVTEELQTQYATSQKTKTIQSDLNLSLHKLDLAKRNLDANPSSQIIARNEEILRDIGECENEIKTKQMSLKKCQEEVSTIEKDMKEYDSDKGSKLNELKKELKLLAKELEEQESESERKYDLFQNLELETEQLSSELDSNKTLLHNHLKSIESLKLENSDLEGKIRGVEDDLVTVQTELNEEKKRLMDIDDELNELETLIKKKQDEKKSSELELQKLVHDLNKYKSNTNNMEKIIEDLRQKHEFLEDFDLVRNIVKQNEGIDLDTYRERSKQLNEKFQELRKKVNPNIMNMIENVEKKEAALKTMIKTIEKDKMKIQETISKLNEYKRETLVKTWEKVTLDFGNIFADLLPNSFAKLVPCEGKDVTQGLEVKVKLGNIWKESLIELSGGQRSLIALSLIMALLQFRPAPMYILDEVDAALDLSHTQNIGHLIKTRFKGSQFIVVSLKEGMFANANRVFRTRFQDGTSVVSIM

Ycs4 = target: T2, Ycs4 (S. cerevisiae, UniProt Q06156 1-1176); assay: as above; settings: both partners purified
T2 construct: Ycs4, HAWK (HEAT repeat) subunit of S. cerevisiae condensin
T2 sequence: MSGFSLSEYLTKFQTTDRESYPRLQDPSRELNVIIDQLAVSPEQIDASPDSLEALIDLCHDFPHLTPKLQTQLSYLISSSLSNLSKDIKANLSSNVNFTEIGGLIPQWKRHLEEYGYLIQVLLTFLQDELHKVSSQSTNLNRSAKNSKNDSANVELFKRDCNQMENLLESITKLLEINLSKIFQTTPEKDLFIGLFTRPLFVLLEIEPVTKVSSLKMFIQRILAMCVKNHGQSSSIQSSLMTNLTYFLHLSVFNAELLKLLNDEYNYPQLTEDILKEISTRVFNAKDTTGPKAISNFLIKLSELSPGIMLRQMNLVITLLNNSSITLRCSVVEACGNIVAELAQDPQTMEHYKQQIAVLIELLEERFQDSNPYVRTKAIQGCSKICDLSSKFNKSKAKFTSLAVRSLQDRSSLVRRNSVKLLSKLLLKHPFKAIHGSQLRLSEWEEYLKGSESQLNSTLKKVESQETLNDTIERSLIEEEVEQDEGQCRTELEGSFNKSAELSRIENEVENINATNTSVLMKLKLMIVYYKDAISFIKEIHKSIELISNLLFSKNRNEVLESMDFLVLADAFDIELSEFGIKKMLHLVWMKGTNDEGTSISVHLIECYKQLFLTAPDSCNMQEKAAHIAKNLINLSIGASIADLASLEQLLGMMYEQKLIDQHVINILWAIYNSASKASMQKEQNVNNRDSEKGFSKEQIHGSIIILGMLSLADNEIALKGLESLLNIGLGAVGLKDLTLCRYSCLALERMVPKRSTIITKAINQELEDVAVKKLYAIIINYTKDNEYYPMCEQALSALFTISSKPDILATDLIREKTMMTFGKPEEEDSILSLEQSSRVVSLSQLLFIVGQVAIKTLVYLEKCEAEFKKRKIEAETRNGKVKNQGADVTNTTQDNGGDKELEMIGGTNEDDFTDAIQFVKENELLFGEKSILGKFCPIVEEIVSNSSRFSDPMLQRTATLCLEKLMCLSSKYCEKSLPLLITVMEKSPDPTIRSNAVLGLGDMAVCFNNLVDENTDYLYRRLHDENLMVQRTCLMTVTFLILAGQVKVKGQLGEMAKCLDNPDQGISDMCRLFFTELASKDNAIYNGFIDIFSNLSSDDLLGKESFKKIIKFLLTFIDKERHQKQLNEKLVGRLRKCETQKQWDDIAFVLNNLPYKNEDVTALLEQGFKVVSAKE

binding result (Smc2): binds
binding result (Ycs4): binds
B1: Brn1-HA3-His12 (natural protein, budding yeast (S. cerevisiae), UniProt P38170 1-754, looked up)
chain: MTTQLRYENNDDDERVEYNLFTNRSTMMANFEEWIKMATDNKINSRNSWNFALIDYFYDLDVLKDGENNINFQKASATLDGCIKIYSSRVDSVTTETGKLLSGLAQRKTNGASNGDDSNGGNGEGLGGDSDEANIEIDPLTGMPISNDPDVNNTRRRVYNRVLETTLVEFETIKMKELDQELIIDPLFKKALVDFDEGGAKSLLLNTLNIDNTARVIFDASIKDTQNVGQGKLQRKEEELIERDSLVDDENEPSQSLISTRNDSTVNDSVISAPSMEDEILSLGMDFIKFDQIAVCEISGSIEQLRNVVEDINQAKDFIENVNNRFDNFLTEEELQAAVPDNAEDDSDGFDMGMQQELCYPDENHDNTSHDEQDDDNVNSTTGSIFEKDLMAYFDENLNRNWRGREHWKVRNFKKANLVNKESDLLEETRTTIGDTTDKNTTDDKSMDTKKKHKQKKVLEIDFFKTDDSFEDKVFASKGRTKIDMPIKNRKNDTHYLLPDDFHFSTDRITRLFIKPGQKMSLFSHRKHTRGDVSSGLFEKSTVSANHSNNDIPTIADEHFWADNYERKEQEEKEKEQSKEVGDVVGGALDNPFEDDMDGVDFNQAFEGTDDNEEASVKLDLQDDEDHKFPIRENKVTYSRVSKKVDVRRLKKNVWRSINNLIQEHDSRKNREQSSNDSETHTEDESTKELKFSDIIQGISKMYSDDTLKDISTSFCFICLLHLANEHGLQITHTENYNDLIVNYEDLATTQAAS
notes: Brn1, kleisin subunit of budding yeast (S. cerevisiae) condensin; 754 residues as printed (279/754 traced in the head module map); The tags' end is read from the plasmid's name BRN1-HA3-His12; also called kleisin Brn1
